Values belong to the binder of their own block, whether it stands above or below them.
B2: Targeting Protein for XKlp2 (TPX2), full length, wild type (natural protein, Xenopus laevis, UniProt Q6NUF4 1-716, looked up)
chain: MEDTQDTYSYDAPSIFNFSSFHEDHNADSWFDQVTNAENIPPDQRRLSETSVNTEQNSKVEPVQTTPSKDDVSNSATHVCDVKSQSKRSSRRMSKKHRQKLLVKMKDTHLEKETAPPEYPPCKKLKGSSSKGRHAPVIKSQSTSSHHSMTSPKPKAQLTMPSTPTVLKRRNVLVKAKNSEEQELEKMQELQKEMLENLKKNEHSMKVAITGAGQPVKTFIPVTKPVDFHFKTDDRLKRTANQPEGDGYKAVDFASELRKHPPSPVQVTKGGHTVPKPFNLSKGKRKHEEASDYVSTAEQVIAFYKRTPARYHLRSRQREMEGPSPVKMIKTKLTNPKTPLLQTKGRHRPVTCKSAAELEAEELEMINQYKFKAQELDTRILEGGPVLLKKPLVKEPTKAIGFDLEIEKRIQQREKKEEIEEETFTFHSRPCPSKMLTDVVGVPLKKLLPVTVPQSPAFALKNRVRIPAQEEKQEEMVPVIKATRMPHYGVPFKPKLVEQRQVDVCPFSFCDRDKERQLQKEKRLDELRKDEVPKFKAQPLPQFDNIRLPEKKVKMPTQQEPFDLEIEKRGASKLQRWQQQIQEELKQQKEMVVFKARPNTVVHQEPFVPKKENRSLTESLSGSIVQEGFELATAKRAKERQEFDKCLAETEAQKSLLEEEIRKRREEEEKEEISQLRQELVHKAKPIRKYRAVEVKASDVPLTVPRSPNFSDRFKC
notes: TPX2, Xenopus laevis, full length; 1 to 716; Named GFP-TPX2 for SEC-MALS; also called GFP-TPX2; wt-TPX2; source: recombinant, purified to >95% purity
B4: importin-α/β heterodimer (complex)
chain 1: not shown
chain 2: MELVTILEKTVSPDRNELEAAQKFLEQAAVENLPTFVVELSKVLANPANSQVARVAAGLQIKNPLTSRDPDVKAQYQQRWLAIDASARGEIKTYVLRTLGTESYRPSSASQCVAGIACAEITVNQWPQLIPQLVANVTDPNSTERMKESTLEAIGYICQDIDPEQLQHKSNEILTAIIQGMRKEEPSNNVRLAATNALLNSLEFTKANFDKESERHYIMQVVCEATQCPDTRVRVAALQNLVKIMSLYYQYMETYMGPALFAITVEAMKNEIDEVALQGIEFWSNVCDEEMDLAIEASEAAEQGRPPEHTSKFYAKGALQYLVPILTQTLTKQDENDDDDDWNPCKAAGVCLMLLATCCEDDIVPHVLPFIKEHIKNPDWRYRDAAVMAFGCILEGPESCQLKPLVIQAMPTLIELMKDPSVVVRDTTAWTVGRICELLPEAAINDVYLAPLLQCLIEGLGAEPRVASNVCWAFSSLAEAAYEAADVADDQEEPSSYCLSSSFEVIVQKLLETTDRPDGHQNNLRSAAYEALMEIVKNSAKDCYPAVQKTTLVIMERLQQVLQVESHIQSTSDRIQFNDLQSLLCATLQNVLRKVQHQDALQISDVVMASLLRMFQSTAGSGGVQEDALMAVSTLVEVLGAEFLKYMEAFKPFLTIGLKNYAEYQVCLAAVGLVGDLCRALQSNILPFCDEMMQFLLENLGNENVHRSVKPQILSVFGDVALAIGGEFKKYLDVVLNTLQQASQAQVDKSDYDMVDYLNELREGCIEAYTGIIQGLKGDQENVHPDVMLVQPRVEFILSFIDHIAGDEDHTDSVVACGAGLIGDLCTAFGKDVLKLVEARPMIHELLTEGRRSKTNKTKTLATWATKELRKLKNQA
B5: importin-β (natural protein, Xenopus laevis, UniProt P52297 1-876, looked up)
chain: MELVTILEKTVSPDRNELEAAQKFLEQAAVENLPTFVVELSKVLANPANSQVARVAAGLQIKNPLTSRDPDVKAQYQQRWLAIDASARGEIKTYVLRTLGTESYRPSSASQCVAGIACAEITVNQWPQLIPQLVANVTDPNSTERMKESTLEAIGYICQDIDPEQLQHKSNEILTAIIQGMRKEEPSNNVRLAATNALLNSLEFTKANFDKESERHYIMQVVCEATQCPDTRVRVAALQNLVKIMSLYYQYMETYMGPALFAITVEAMKNEIDEVALQGIEFWSNVCDEEMDLAIEASEAAEQGRPPEHTSKFYAKGALQYLVPILTQTLTKQDENDDDDDWNPCKAAGVCLMLLATCCEDDIVPHVLPFIKEHIKNPDWRYRDAAVMAFGCILEGPESCQLKPLVIQAMPTLIELMKDPSVVVRDTTAWTVGRICELLPEAAINDVYLAPLLQCLIEGLGAEPRVASNVCWAFSSLAEAAYEAADVADDQEEPSSYCLSSSFEVIVQKLLETTDRPDGHQNNLRSAAYEALMEIVKNSAKDCYPAVQKTTLVIMERLQQVLQVESHIQSTSDRIQFNDLQSLLCATLQNVLRKVQHQDALQISDVVMASLLRMFQSTAGSGGVQEDALMAVSTLVEVLGAEFLKYMEAFKPFLTIGLKNYAEYQVCLAAVGLVGDLCRALQSNILPFCDEMMQFLLENLGNENVHRSVKPQILSVFGDVALAIGGEFKKYLDVVLNTLQQASQAQVDKSDYDMVDYLNELREGCIEAYTGIIQGLKGDQENVHPDVMLVQPRVEFILSFIDHIAGDEDHTDSVVACGAGLIGDLCTAFGKDVLKLVEARPMIHELLTEGRRSKTNKTKTLATWATKELRKLKNQA
notes: importin-β, Xenopus laevis; Construct in the Supplemental information; The UniProt entry recalled may be a fragment; also called importin-β alone; source: recombinant, purified to >95% purity

Key:
[1] = target: B5; test: BLI; Octet (ForteBio); TPX2 attached to sensors, importin concentration varied; normalized amplitudes; apparent Kd; settings: both partners purified
[2] = target: B4; test: as above; settings: both partners purified
[3] = target: B2; test: cell-based or functional assay
[4] = target: B2; test: SEC-MALS; Superdex-200-increase 3.2/300 in line with a Wyatt light scattering machine; GFP-TPX2 alone, importin-α/β alone and TPX2 with importin-α/β (TPX2 printed as 5 M, importin-α/β 15 μM); settings: both partners purified
[5] = target: GST-importin-α (Xenopus laevis); test: as above; settings: both partners purified
Sequence of GST-importin-α (Xenopus laevis) (chain, as listed by the source): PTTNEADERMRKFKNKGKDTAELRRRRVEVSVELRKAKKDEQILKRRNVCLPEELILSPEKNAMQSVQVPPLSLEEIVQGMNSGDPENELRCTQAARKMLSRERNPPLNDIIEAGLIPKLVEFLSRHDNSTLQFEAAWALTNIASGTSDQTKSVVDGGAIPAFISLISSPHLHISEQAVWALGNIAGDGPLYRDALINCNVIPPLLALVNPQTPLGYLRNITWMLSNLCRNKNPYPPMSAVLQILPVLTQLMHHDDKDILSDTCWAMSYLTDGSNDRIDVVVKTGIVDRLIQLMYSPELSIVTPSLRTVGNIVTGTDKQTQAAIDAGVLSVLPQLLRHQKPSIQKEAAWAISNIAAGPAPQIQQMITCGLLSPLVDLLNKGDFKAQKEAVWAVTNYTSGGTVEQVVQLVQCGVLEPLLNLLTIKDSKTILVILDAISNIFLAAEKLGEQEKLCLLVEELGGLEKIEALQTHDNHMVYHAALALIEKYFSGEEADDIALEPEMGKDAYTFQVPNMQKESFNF

Kd [1]: 512 ± 70 nM
B1: TPX2 N terminus (a.a. 1-480) (domain or fragment, Xenopus laevis, UniProt Q6NUF4 1-480, looked up)
chain: MEDTQDTYSYDAPSIFNFSSFHEDHNADSWFDQVTNAENIPPDQRRLSETSVNTEQNSKVEPVQTTPSKDDVSNSATHVCDVKSQSKRSSRRMSKKHRQKLLVKMKDTHLEKETAPPEYPPCKKLKGSSSKGRHAPVIKSQSTSSHHSMTSPKPKAQLTMPSTPTVLKRRNVLVKAKNSEEQELEKMQELQKEMLENLKKNEHSMKVAITGAGQPVKTFIPVTKPVDFHFKTDDRLKRTANQPEGDGYKAVDFASELRKHPPSPVQVTKGGHTVPKPFNLSKGKRKHEEASDYVSTAEQVIAFYKRTPARYHLRSRQREMEGPSPVKMIKTKLTNPKTPLLQTKGRHRPVTCKSAAELEAEELEMINQYKFKAQELDTRILEGGPVLLKKPLVKEPTKAIGFDLEIEKRIQQREKKEEIEEETFTFHSRPCPSKMLTDVVGVPLKKLLPVTVPQSPAFALKNRVRIPAQEEKQEEMVPVI
notes: TPX2, Xenopus laevis, amino acids 1-480 (disordered N-terminal region); also called N-terminal region (a.a. 1-480) of TPX2; source: recombinant, purified to >95% purity

Binder: B2
Kd [2]: 75 ± 15 nM | Kd [1]: 530 ± 75 nM

Kd [1]: > 4000 nM
B3: TPX2 C terminus (a.a. 480-716) (domain or fragment, Xenopus laevis, UniProt Q6NUF4 480-716, looked up)
chain: IKATRMPHYGVPFKPKLVEQRQVDVCPFSFCDRDKERQLQKEKRLDELRKDEVPKFKAQPLPQFDNIRLPEKKVKMPTQQEPFDLEIEKRGASKLQRWQQQIQEELKQQKEMVVFKARPNTVVHQEPFVPKKENRSLTESLSGSIVQEGFELATAKRAKERQEFDKCLAETEAQKSLLEEEIRKRREEEEKEEISQLRQELVHKAKPIRKYRAVEVKASDVPLTVPRSPNFSDRFKC
notes: TPX2, Xenopus laevis, amino acids 480-716 (ordered C-terminal region); also called TPX2's C terminus; source: recombinant, purified to >95% purity

Binder: B4
inhibition of TPX2 condensation (fluorescence microscopy; TPX2 1 μM, importin-α/β in molar excess) [3]: 2 fold excess | stoichiometry N [4]: 1 TPX2:importin-α:importin-β

Binder: B5
TPX2-mediated branching microtubule nucleation in Xenopus egg cytosol (TIRF microscopy; TPX2 150 nM, importin-β 2.5x to 20x) [3]: 10 fold molar excess | stoichiometry N [5]: 1 importin-α:importin-β

— publication PMC8390506, “Interaction of spindle assembly factor TPX2 with importins-α/β inhibits protein phase separation” (The Journal of Biological Chemistry, 2021)
